Biological target: Wnt3a
Assay: cell-based or functional assay

- decrease in Wnt3a acylation (metabolic labeling with az-15 and 35S-Met/Cys, click chemistry with ALK-Rho on immunoprecipitated Wnt3a): 31%
Substance: Human Tiki2 (from UniProt A6NFA1 20-486) (enzyme)

From patent US20110231942A1
